Assay results: patent US20040254351A1 (published 2004)

T1: G-CSF receptor
T1 sequence (Q99062 whole entry, species assumed, looked up): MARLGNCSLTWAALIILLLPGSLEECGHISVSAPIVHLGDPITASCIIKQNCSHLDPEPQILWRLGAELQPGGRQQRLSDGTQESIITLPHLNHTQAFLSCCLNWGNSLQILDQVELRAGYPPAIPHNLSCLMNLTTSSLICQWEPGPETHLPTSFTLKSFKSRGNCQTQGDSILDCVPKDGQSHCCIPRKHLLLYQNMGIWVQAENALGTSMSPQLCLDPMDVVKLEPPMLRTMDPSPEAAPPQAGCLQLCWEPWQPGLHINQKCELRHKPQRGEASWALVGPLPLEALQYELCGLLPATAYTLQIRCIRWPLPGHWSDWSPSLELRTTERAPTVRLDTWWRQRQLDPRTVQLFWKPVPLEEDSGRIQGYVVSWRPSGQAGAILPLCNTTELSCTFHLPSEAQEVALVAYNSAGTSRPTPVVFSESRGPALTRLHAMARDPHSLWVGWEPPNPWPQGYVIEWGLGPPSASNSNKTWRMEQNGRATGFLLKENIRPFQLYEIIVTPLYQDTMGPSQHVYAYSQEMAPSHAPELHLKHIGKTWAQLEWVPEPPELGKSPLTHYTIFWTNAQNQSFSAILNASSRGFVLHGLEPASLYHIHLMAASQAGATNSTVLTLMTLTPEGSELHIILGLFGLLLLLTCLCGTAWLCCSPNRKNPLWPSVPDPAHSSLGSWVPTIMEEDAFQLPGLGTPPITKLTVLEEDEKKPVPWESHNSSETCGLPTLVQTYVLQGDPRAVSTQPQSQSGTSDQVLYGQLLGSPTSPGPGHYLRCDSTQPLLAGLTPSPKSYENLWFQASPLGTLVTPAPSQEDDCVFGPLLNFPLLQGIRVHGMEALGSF


Target: T1, G-CSF receptor
Assay: cell-based or functional assay

Binder | EC50/Neupogen (reporter activity in cells expressing the G-CSF receptor)
G-CSF[E93N,I95T] (ligand, consensus N-linked glycosylation site at Asn 93 (region 10)) TPLGPASSLPQSFLLKALEQVRKIQGDGAALQEKLCATYKLCHPEELVLLGHSLGIPWAPLSSCPSQALQLAGCLSQLHSGLFLYQGLLQALNGTSPELGPTLDTLQLDVADFATTIWQQMEELGMAPALQPTQGAMPAFASAFQRRAGGVLVASHLQSFLEVSYRVLRHLAQP | 0.36 ratio to Neupogen
G-CSF[A37N,Y39T,P57V,W58N,P60T,Q67N,L69T] (ligand, consensus N-linked glycosylation sites at Asn 37, Asn 58 and Asn 67 (regions 1, 2 and 9)) TPLGPASSLPQSFLLKALEQVRKIQGDGAALQEKLCNTTKLCHPEELVLLGHSLGIVNATLSSCPSNATQLAGCLSQLHSGLFLYQGLLQALEGISPELGPTLDTLQLDVADFATTIWQQMEELGMAPALQPTQGAMPAFASAFQRRAGGVLVASHLQSFLEVSYRVLRHLAQP | 0.53 ratio to Neupogen
G-CSF[A141N,A143T] (ligand, consensus N-linked glycosylation site at Asn 141 (region 14)) TPLGPASSLPQSFLLKALEQVRKIQGDGAALQEKLCATYKLCHPEELVLLGHSLGIPWAPLSSCPSQALQLAGCLSQLHSGLFLYQGLLQALEGISPELGPTLDTLQLDVADFATTIWQQMEELGMAPALQPTQGAMPAFNSTFQRRAGGVLVASHLQSFLEVSYRVLRHLAQP | 0.54 ratio to Neupogen
G-CSF[P57V,W58N,P60T] (ligand, consensus N-linked glycosylation site at Asn 58 (region 2)) TPLGPASSLPQSFLLKALEQVRKIQGDGAALQEKLCATYKLCHPEELVLLGHSLGIVNATLSSCPSQALQLAGCLSQLHSGLFLYQGLLQALEGISPELGPTLDTLQLDVADFATTIWQQMEELGMAPALQPTQGAMPAFASAFQRRAGGVLVASHLQSFLEVSYRVLRHLAQP | 0.59 ratio to Neupogen
G-CSF[A37N,Y39T] (ligand, consensus N-linked glycosylation site at Asn 37 (region 1)) TPLGPASSLPQSFLLKALEQVRKIQGDGAALQEKLCNTTKLCHPEELVLLGHSLGIPWAPLSSCPSQALQLAGCLSQLHSGLFLYQGLLQALEGISPELGPTLDTLQLDVADFATTIWQQMEELGMAPALQPTQGAMPAFASAFQRRAGGVLVASHLQSFLEVSYRVLRHLAQP | 0.8 ratio to Neupogen
G-CSF[A37N,Y39T,S63N,P65T,E93N,I95T] (ligand, consensus N-linked glycosylation sites at Asn 37, Asn 63 and Asn 93 (regions 1, 7 and 10)) TPLGPASSLPQSFLLKALEQVRKIQGDGAALQEKLCNTTKLCHPEELVLLGHSLGIPWAPLSNCTSQALQLAGCLSQLHSGLFLYQGLLQALNGTSPELGPTLDTLQLDVADFATTIWQQMEELGMAPALQPTQGAMPAFASAFQRRAGGVLVASHLQSFLEVSYRVLRHLAQP | 0.97 ratio to Neupogen

Results, then the binder that gave them:

EC50/Neupogen (reporter activity in cells expressing the G-CSF receptor) | Binder
0.78 ratio to Neupogen | G-CSF[Q67N,L69T] (ligand, consensus N-linked glycosylation site at Asn 67 (region 9)) TPLGPASSLPQSFLLKALEQVRKIQGDGAALQEKLCATYKLCHPEELVLLGHSLGIPWAPLSSCPSNATQLAGCLSQLHSGLFLYQGLLQALEGISPELGPTLDTLQLDVADFATTIWQQMEELGMAPALQPTQGAMPAFASAFQRRAGGVLVASHLQSFLEVSYRVLRHLAQP
0.9 ratio to Neupogen | G-CSF[S63N,P65T] (ligand, consensus N-linked glycosylation site at Asn 63 (region 7)) TPLGPASSLPQSFLLKALEQVRKIQGDGAALQEKLCATYKLCHPEELVLLGHSLGIPWAPLSNCTSQALQLAGCLSQLHSGLFLYQGLLQALEGISPELGPTLDTLQLDVADFATTIWQQMEELGMAPALQPTQGAMPAFASAFQRRAGGVLVASHLQSFLEVSYRVLRHLAQP
0.94 ratio to Neupogen | G-CSF[P60N,S62T] (ligand, consensus N-linked glycosylation site at Asn 60 (region 4)) TPLGPASSLPQSFLLKALEQVRKIQGDGAALQEKLCATYKLCHPEELVLLGHSLGIPWANLTSCPSQALQLAGCLSQLHSGLFLYQGLLQALEGISPELGPTLDTLQLDVADFATTIWQQMEELGMAPALQPTQGAMPAFASAFQRRAGGVLVASHLQSFLEVSYRVLRHLAQP
0.37 ratio to Neupogen | G-CSF[T133N,G135T] (ligand, consensus N-linked glycosylation site at Asn 133 (region 13), replacing the O-linked site) TPLGPASSLPQSFLLKALEQVRKIQGDGAALQEKLCATYKLCHPEELVLLGHSLGIPWAPLSSCPSQALQLAGCLSQLHSGLFLYQGLLQALEGISPELGPTLDTLQLDVADFATTIWQQMEELGMAPALQPNQTAMPAFASAFQRRAGGVLVASHLQSFLEVSYRVLRHLAQP
